Publication PMC6344894
Where two headings read alike, the source gives them in different places.

Tests used:
YbaK (Escherichia coli) [1] = target: YbaK (Escherichia coli) (UniProt P0AAR3); conditions: cited from earlier work
YbaK (Escherichia coli) [2] = target: YbaK (Escherichia coli) (UniProt P0AAR3); conditions: cited from earlier work; remark: listed apart in the source
[3] = tested on: ProXp-ala (Caulobacter crescentus); assay: native MS competition; conditions: equimolar three-tRNA mix, 0.33 uM each; 5 uM protein; 1 mM Mg(OAc)2; unmodified transcript; AUC: 50 mM HEPES pH 6.8, 30 mM KCl, 1 mM MgCl2, 20 C; native MS: 200 mM ammonium acetate pH 7.5 (1 mM Mg(OAc)2 stated for ProXp-ala/YbaK competition); scale: ratio of complex tRNAPro:tRNACys:tRNAAla

Substance	Kd (YbaK (Escherichia coli) [1])	Kd (YbaK (Escherichia coli) [2])	binding signal [3]
ProRS (from UniProt P16659)	550 nM	45 nM	
tRNAAla G35A			1
tRNACys			1
tRNAPro			4
